Results as given in paper PMC3983244, “Location of Dual Sites in E. coli FtsZ Important for Degradation by ClpXP; One at the C-Terminus and One in the Disordered Linker” (PLoS ONE, 2014).
Changes are numbered by the printed parent chain. Names may count otherwise. One block for each molecule: values may come before it.

Key:
FtsZ(P375G) (E. coli) = FtsZ(P375G) (E. coli) (UniProt P0A9A6)
FtsZ(F377A) (E. coli) = FtsZ(F377A) (E. coli) (UniProt P0A9A6)
[1] = target: E. coli FtsZ (wild type) (E. coli) (UniProt P0A9A6)
FtsZ(Δ375-383) (E. coli) = FtsZ(Δ375-383) (E. coli) (UniProt P0A9A6)
FtsZ(K380A) (E. coli) = FtsZ(K380A) (E. coli) (UniProt P0A9A6)
FtsZ(R379E) (E. coli) = FtsZ(R379E) (E. coli) (UniProt P0A9A6)
FtsZ(Δ380-383) (E. coli) = FtsZ(Δ380-383) (E. coli) (UniProt P0A9A6)
[2] = target: E. coli FtsZ (wild type) (E. coli) (UniProt P0A9A6); remark: listed apart in the source
[3] = target: the molecule itself; assay: 90° light scattering; 8 µM FtsZ wild type or mutant in assembly buffer, polymerisation after addition of 1 mM GTP; self-association into polymers
ClpX(E185Q) = target: T1, ClpX(E185Q) (E. coli, UniProt P0A6H1 1-424, E185Q); assay: co-sedimentation; 250 pmol FtsZ wild type or mutant polymerised with 2 mM GTP in assembly buffer (50 mM MES pH 6.5, 50 mM KCl, 10 mM MgCl2) with acetate kinase and acetyl phosphate; 1.5, 5.0 or 12.5 pmol ClpX(E185Q) and 4 mM ATP added, 25 µl, 10 min; 129,000×g 30 min; SDS-PAGE, Coomassie, densitometry; background without GTP subtracted; conditions: both partners purified
T1 construct: ClpX, Escherichia coli, ATP hydrolysis defective mutant E185Q; Concentrations are reported for ClpX hexamers; also called ATP hydrolysis defective mutant of ClpX

[4] = target: the molecule itself; assay: negative-stain electron microscopy; FtsZ mutant proteins (5 µM) incubated with GTP, negative staining with uranyl acetate; filaments

reduction of the rate of degradation by ClpXP against wild type FtsZ, in the presence of GTP (no similar reduction without GTP) (FtsZ(P375G) (E. coli)): 50% | reduction of the rate of degradation by ClpXP against wild type FtsZ, in the presence of GTP (no similar reduction without GTP) (FtsZ(F377A) (E. coli)): 50% | rate of degradation of fluorescent FtsZ (10 µM) by ClpXP (1 µM) in the absence of GTP, ultrafiltration assay [1]: 0.11 min⁻¹ | rate of degradation of fluorescent FtsZ (10 µM) by ClpXP (1 µM) in the presence of GTP, ultrafiltration assay [1]: 0.2 min⁻¹ | reduction of the rate of degradation by ClpXP against wild type FtsZ, in the absence of GTP (FtsZ(Δ375-383) (E. coli)): 65% | reduction of the rate of degradation by ClpXP against wild type FtsZ, in the presence of GTP (FtsZ(Δ375-383) (E. coli)): 75% | reduction of the rate of degradation by ClpXP against wild type FtsZ, in both the presence and absence of GTP (FtsZ(K380A) (E. coli)): 55% | reduction of the rate of degradation by ClpXP against wild type FtsZ, in both the presence and absence of GTP (FtsZ(R379E) (E. coli)): 75% | reduction of the rate of degradation by ClpXP against wild type FtsZ, in the absence of GTP (FtsZ(Δ380-383) (E. coli)): 65% | reduction of the rate of degradation by ClpXP against wild type FtsZ, in the presence of GTP (FtsZ(Δ380-383) (E. coli)): 75%
Molecule: E. coli ClpX (wild type) (from UniProt P0A6H1 1-424) (enzyme)

inhibition of degradation of fluorescent FtsZ (5 µM, with GTP) by ClpXP (0.5 µM) at 2, 5, 10 and 20 µM MinC; the pair that is blocked: FtsZ with ClpX (ClpXP) [2]: 80%
B1: MinC (natural protein)
chain: MSNTPIELKGSSFTLSVVHLHEAEPKVIHQALEDKIAQAPAFLKHAPVVLNVSALEDPVNWSAMHKAVSATGLRVIGVSGCKDAQLKAEIEKMGLPILTEGKEKAPRPAPTPQAPAQNTTPVTKTRLIDTPVRSGQRIYAPQCDLIVTSHVSAGAELIADGNIHVYGMMRGRALAGASGDRETQIFCTNLMAELVSIAGEYWLSDQIPAEFYGKAARLQLVENALTVQPLN

binding result (ClpX(E185Q)): binds
B2: FtsZ(352AAA, Δ375-383) (domain or fragment, E. coli, UniProt P0A9A6 1-374, looked up)
chain: MFEPMELTNDAVIKVIGVGGGGGNAVEHMVRERIEGVEFFAVNTDAQALRKTAVGQTIQIGSGITKGLGAGANPEVGRNAADEDRDALRAALEGADMVFIAAGMGGGTGTGAAPVVAEVAKDLGILTVAVVTKPFNFEGKKRMAFAEQGITELSKHVDSLITIPNDKLLKVLGRGISLLDAFGAANDVLKGAVQGIAELITRPGLMNVDFADVRTVMSEMGYAMMGSGVASGEDRAEEAAEMAISSPLLEDIDLSGARGVLVNITAGFDLRLDEFETVGNTIRAFASDNATVVIGTSLDPDMNDELRVTVVATGIGMDKRPEITLVTNKQVQQPVMDRYQQHGMAPLTQEQAAAAKVVNDNAPQTAKEPDYLDI
notes: also called double mutant; source: E. coli BL21 (λDE3), purified like wild type FtsZ
binding result [3]: binds

binding result (ClpX(E185Q)): binds
B3: FtsZ(Δ375-383) (domain or fragment, E. coli, UniProt P0A9A6 1-374, looked up)
chain: B2 chain with A352K, A353P, A354V
notes: Alexa-labelled in the degradation reactions, unlabelled in co-sedimentation; also called deletion mutant lacking the C-terminal nine amino acids; source: E. coli BL21 (λDE3), purified like wild type FtsZ

binding result (ClpX(E185Q)): binds
B4: E. coli FtsZ (wild type) (natural protein, UniProt P0A9A6 1-383, looked up)
chain: MFEPMELTNDAVIKVIGVGGGGGNAVEHMVRERIEGVEFFAVNTDAQALRKTAVGQTIQIGSGITKGLGAGANPEVGRNAADEDRDALRAALEGADMVFIAAGMGGGTGTGAAPVVAEVAKDLGILTVAVVTKPFNFEGKKRMAFAEQGITELSKHVDSLITIPNDKLLKVLGRGISLLDAFGAANDVLKGAVQGIAELITRPGLMNVDFADVRTVMSEMGYAMMGSGVASGEDRAEEAAEMAISSPLLEDIDLSGARGVLVNITAGFDLRLDEFETVGNTIRAFASDNATVVIGTSLDPDMNDELRVTVVATGIGMDKRPEITLVTNKQVQQPVMDRYQQHGMAPLTQEQKPVAKVVNDNAPQTAKEPDYLDIPAFLRKQAD
notes: FtsZ, Escherichia coli, wild type; Unlabelled in the co-sedimentation assay; labelled with Alexa fluor succinimidyl ester (0.5-5.0 mol/mol) in the degradation reactions; Assembles into polymers with GTP; also called wild type FtsZ
binding result [3]: binds

B5: FtsZ(R379E) (natural protein, E. coli, UniProt P0A9A6 1-383, looked up)
chain: B4 chain with R379E
notes: FtsZ, Escherichia coli, substitution R379E; source: E. coli BL21 (λDE3), purified like wild type FtsZ
binding result [4]: binds

binding result (ClpX(E185Q)): binds
B6: FtsZ(352AAA) (natural protein, E. coli, UniProt P0A9A6 1-383, looked up)
chain: B4 chain with K352A, P353A, V354A
notes: source: E. coli BL21 (λDE3), purified like wild type FtsZ
binding result [4]: binds

binding result (ClpX(E185Q)): binds
B7: FtsZ(356AAA) (natural protein, E. coli, UniProt P0A9A6 1-383, looked up)
chain: B4 chain with K356A, V357A, V358A
notes: as for B6
binding result [3]: binds

B8: FtsZ(K380A) (natural protein, E. coli, UniProt P0A9A6 1-383, looked up)
chain: B4 chain with K380A
notes: FtsZ, Escherichia coli, substitution K380A; source: E. coli BL21 (λDE3), purified like wild type FtsZ
binding result [3]: binds

B9: FtsZ(Δ380-383) (domain or fragment, E. coli, UniProt P0A9A6 1-379, looked up)
chain: MFEPMELTNDAVIKVIGVGGGGGNAVEHMVRERIEGVEFFAVNTDAQALRKTAVGQTIQIGSGITKGLGAGANPEVGRNAADEDRDALRAALEGADMVFIAAGMGGGTGTGAAPVVAEVAKDLGILTVAVVTKPFNFEGKKRMAFAEQGITELSKHVDSLITIPNDKLLKVLGRGISLLDAFGAANDVLKGAVQGIAELITRPGLMNVDFADVRTVMSEMGYAMMGSGVASGEDRAEEAAEMAISSPLLEDIDLSGARGVLVNITAGFDLRLDEFETVGNTIRAFASDNATVVIGTSLDPDMNDELRVTVVATGIGMDKRPEITLVTNKQVQQPVMDRYQQHGMAPLTQEQKPVAKVVNDNAPQTAKEPDYLDIPAFLR
notes: also called deletion mutant that lacks the C-terminal four amino acid variable region; source: E. coli BL21 (λDE3), purified like wild type FtsZ
binding result [3]: binds
